Measurements as given in US20260217779A1 (Chugai, published 2026).

T1: human CXCR3 (hCXCR3) on Ba/F3 transfectant cells (human, UniProt P49682 1-368)
T1 sequence: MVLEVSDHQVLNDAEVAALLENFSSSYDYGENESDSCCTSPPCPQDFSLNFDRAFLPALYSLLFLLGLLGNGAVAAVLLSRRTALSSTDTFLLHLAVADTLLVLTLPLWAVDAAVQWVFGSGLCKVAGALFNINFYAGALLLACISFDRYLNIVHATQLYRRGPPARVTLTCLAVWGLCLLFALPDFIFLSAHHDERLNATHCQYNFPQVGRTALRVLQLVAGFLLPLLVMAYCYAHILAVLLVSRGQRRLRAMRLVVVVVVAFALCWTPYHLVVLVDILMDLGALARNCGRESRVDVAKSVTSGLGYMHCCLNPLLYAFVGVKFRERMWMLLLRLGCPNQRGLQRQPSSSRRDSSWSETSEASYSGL


target: T1, human CXCR3 (hCXCR3) on Ba/F3 …; test: cell-based or functional assay

Row | Binder | Activity retention rate at 33 nM [%] | Activity retention rate at 100 nM [%] | Activity retention rate at 300 nM [%] | Luminescence value at 33 nM | Luminescence value at 100 nM | Luminescence value at 300 nM
1 | hCXCL11.0024-G1T4k.one//VHn-G1T4h.one.H435R (Fc fusion) chain 1: FFPMFKRGRCLCIGPGVKAVKVADIEKASIMYPSNNCDKIEVIITLKENKGQRCLNPKSKQARLIIKKVERKNFEPKSSDKTHTCPPCPAPELRRGPSVFLFPPKPKDTLMISRTPEVTCVVVDVSHEDPEVKFNWYVDGVEVHNAKTKPREEQYNSTYRVVSVLTVLHQDWLNGKEYKCKVSNKGLPSSIEKTISKAKGQPREPQVCTLPPSREEMTKNQVSLWCLVKGFYPSDIAVEWESNGQPENNYKTTPPVLDSDGSFFLYSKLTVDKSRWQEGNVFSCSVMHEALHNHYTQKSLSLSP chain 2: EPKSSDKTHTCPPCPAPELRRGPSVFLFPPKPKDTLMISRTPEVTCVVVDVSHEDPEVKFNWYVDGVEVHNAKTKPREEQYNSTYRVVSVLTVLHQDWLNGKEYKCKVSNKGLPSSIEKTISKAKGQPREPQVYTLPPSRCEMTKNQVSLSCAVKGFYPSDIAVEWESNGQPENNYKTTPPVLDSDGSFFLVSKLTVDKSRWQEGNVFSCSVMHEALHNRYTQKSLSLSP | 32 | 72 | 105 | 2.47e+06 | 1.2e+07 | 1.31e+07
2 | hCXCL11.0032-G1T4k.one//VHn-G1T4h.one.H435R (Fc fusion) chain 1: PFPMFKRGRCLCIGPGVKAVKVADIEKASIMYPSNNCDKIEVIITLKENKGQRCLNPKSKQARLIIKKVERKNFEPKSSDKTHTCPPCPAPELRRGPSVFLFPPKPKDTLMISRTPEVTCVVVDVSHEDPEVKFNWYVDGVEVHNAKTKPREEQYNSTYRVVSVLTVLHQDWLNGKEYKCKVSNKGLPSSIEKTISKAKGQPREPQVCTLPPSREEMTKNQVSLWCLVKGFYPSDIAVEWESNGQPENNYKTTPPVLDSDGSFFLYSKLTVDKSRWQEGNVFSCSVMHEALHNHYTQKSLSLSP chain 2: EPKSSDKTHTCPPCPAPELRRGPSVFLFPPKPKDTLMISRTPEVTCVVVDVSHEDPEVKFNWYVDGVEVHNAKTKPREEQYNSTYRVVSVLTVLHQDWLNGKEYKCKVSNKGLPSSIEKTISKAKGQPREPQVYTLPPSRCEMTKNQVSLSCAVKGFYPSDIAVEWESNGQPENNYKTTPPVLDSDGSFFLVSKLTVDKSRWQEGNVFSCSVMHEALHNRYTQKSLSLSP | 33 | 68 | 105 | 2.5e+06 | 1.13e+07 | 1.31e+07
3 | hCXCL11.0030-G1T4k.one//VHn-G1T4h.one.H435R (Fc fusion) chain 1: MFPMFKRGRCLCIGPGVKAVKVADIEKASIMYPSNNCDKIEVIITLKENKGQRCLNPKSKQARLIIKKVERKNFEPKSSDKTHTCPPCPAPELRRGPSVFLFPPKPKDTLMISRTPEVTCVVVDVSHEDPEVKFNWYVDGVEVHNAKTKPREEQYNSTYRVVSVLTVLHQDWLNGKEYKCKVSNKGLPSSIEKTISKAKGQPREPQVCTLPPSREEMTKNQVSLWCLVKGFYPSDIAVEWESNGQPENNYKTTPPVLDSDGSFFLYSKLTVDKSRWQEGNVFSCSVMHEALHNHYTQKSLSLSP chain 2: EPKSSDKTHTCPPCPAPELRRGPSVFLFPPKPKDTLMISRTPEVTCVVVDVSHEDPEVKFNWYVDGVEVHNAKTKPREEQYNSTYRVVSVLTVLHQDWLNGKEYKCKVSNKGLPSSIEKTISKAKGQPREPQVYTLPPSRCEMTKNQVSLSCAVKGFYPSDIAVEWESNGQPENNYKTTPPVLDSDGSFFLVSKLTVDKSRWQEGNVFSCSVMHEALHNRYTQKSLSLSP | 114 | 98 | 86 | 8.75e+06 | 1.64e+07 | 1.06e+07
4 | hCXCL11.0028-G1T4k.one//VHn-G1T4h.one.H435R (Fc fusion) chain 1: KFPMFKRGRCLCIGPGVKAVKVADIEKASIMYPSNNCDKIEVIITLKENKGQRCLNPKSKQARLIIKKVERKNFEPKSSDKTHTCPPCPAPELRRGPSVFLFPPKPKDTLMISRTPEVTCVVVDVSHEDPEVKFNWYVDGVEVHNAKTKPREEQYNSTYRVVSVLTVLHQDWLNGKEYKCKVSNKGLPSSIEKTISKAKGQPREPQVCTLPPSREEMTKNQVSLWCLVKGFYPSDIAVEWESNGQPENNYKTTPPVLDSDGSFFLYSKLTVDKSRWQEGNVFSCSVMHEALHNHYTQKSLSLSP chain 2: EPKSSDKTHTCPPCPAPELRRGPSVFLFPPKPKDTLMISRTPEVTCVVVDVSHEDPEVKFNWYVDGVEVHNAKTKPREEQYNSTYRVVSVLTVLHQDWLNGKEYKCKVSNKGLPSSIEKTISKAKGQPREPQVYTLPPSRCEMTKNQVSLSCAVKGFYPSDIAVEWESNGQPENNYKTTPPVLDSDGSFFLVSKLTVDKSRWQEGNVFSCSVMHEALHNRYTQKSLSLSP | 26 | 53 | 90 | 2e+06 | 8.87e+06 | 1.11e+07
5 | hCXCL11.0031-G1T4k.one//VHn-G1T4h.one.H435R (Fc fusion) chain 1: NFPMFKRGRCLCIGPGVKAVKVADIEKASIMYPSNNCDKIEVIITLKENKGQRCLNPKSKQARLIIKKVERKNFEPKSSDKTHTCPPCPAPELRRGPSVFLFPPKPKDTLMISRTPEVTCVVVDVSHEDPEVKFNWYVDGVEVHNAKTKPREEQYNSTYRVVSVLTVLHQDWLNGKEYKCKVSNKGLPSSIEKTISKAKGQPREPQVCTLPPSREEMTKNQVSLWCLVKGFYPSDIAVEWESNGQPENNYKTTPPVLDSDGSFFLYSKLTVDKSRWQEGNVFSCSVMHEALHNHYTQKSLSLSP chain 2: EPKSSDKTHTCPPCPAPELRRGPSVFLFPPKPKDTLMISRTPEVTCVVVDVSHEDPEVKFNWYVDGVEVHNAKTKPREEQYNSTYRVVSVLTVLHQDWLNGKEYKCKVSNKGLPSSIEKTISKAKGQPREPQVYTLPPSRCEMTKNQVSLSCAVKGFYPSDIAVEWESNGQPENNYKTTPPVLDSDGSFFLVSKLTVDKSRWQEGNVFSCSVMHEALHNRYTQKSLSLSP | 165 | 90 | 51 | 1.27e+07 | 1.51e+07 | 6.39e+06
6 | hCXCL11.0027-G1T4k.one//VHn-G1T4h.one.H435R (Fc fusion) chain 1: IFPMFKRGRCLCIGPGVKAVKVADIEKASIMYPSNNCDKIEVIITLKENKGQRCLNPKSKQARLIIKKVERKNFEPKSSDKTHTCPPCPAPELRRGPSVFLFPPKPKDTLMISRTPEVTCVVVDVSHEDPEVKFNWYVDGVEVHNAKTKPREEQYNSTYRVVSVLTVLHQDWLNGKEYKCKVSNKGLPSSIEKTISKAKGQPREPQVCTLPPSREEMTKNQVSLWCLVKGFYPSDIAVEWESNGQPENNYKTTPPVLDSDGSFFLYSKLTVDKSRWQEGNVFSCSVMHEALHNHYTQKSLSLSP chain 2: EPKSSDKTHTCPPCPAPELRRGPSVFLFPPKPKDTLMISRTPEVTCVVVDVSHEDPEVKFNWYVDGVEVHNAKTKPREEQYNSTYRVVSVLTVLHQDWLNGKEYKCKVSNKGLPSSIEKTISKAKGQPREPQVYTLPPSRCEMTKNQVSLSCAVKGFYPSDIAVEWESNGQPENNYKTTPPVLDSDGSFFLVSKLTVDKSRWQEGNVFSCSVMHEALHNRYTQKSLSLSP | 67 | 100 | 102 | 5.18e+06 | 1.67e+07 | 1.27e+07
7 | hCXCL11.0026-G1T4k.one//VHn-G1T4h.one.H435R (Fc fusion) chain 1: HFPMFKRGRCLCIGPGVKAVKVADIEKASIMYPSNNCDKIEVIITLKENKGQRCLNPKSKQARLIIKKVERKNFEPKSSDKTHTCPPCPAPELRRGPSVFLFPPKPKDTLMISRTPEVTCVVVDVSHEDPEVKFNWYVDGVEVHNAKTKPREEQYNSTYRVVSVLTVLHQDWLNGKEYKCKVSNKGLPSSIEKTISKAKGQPREPQVCTLPPSREEMTKNQVSLWCLVKGFYPSDIAVEWESNGQPENNYKTTPPVLDSDGSFFLYSKLTVDKSRWQEGNVFSCSVMHEALHNHYTQKSLSLSP chain 2: EPKSSDKTHTCPPCPAPELRRGPSVFLFPPKPKDTLMISRTPEVTCVVVDVSHEDPEVKFNWYVDGVEVHNAKTKPREEQYNSTYRVVSVLTVLHQDWLNGKEYKCKVSNKGLPSSIEKTISKAKGQPREPQVYTLPPSRCEMTKNQVSLSCAVKGFYPSDIAVEWESNGQPENNYKTTPPVLDSDGSFFLVSKLTVDKSRWQEGNVFSCSVMHEALHNRYTQKSLSLSP | 71 | 77 | 80 | 5.46e+06 | 1.29e+07 | 9.92e+06
8 | hCXCL11.0029-G1T4k.one//VHn-G1T4h.one.H435R (Fc fusion) chain 1: LFPMFKRGRCLCIGPGVKAVKVADIEKASIMYPSNNCDKIEVIITLKENKGQRCLNPKSKQARLIIKKVERKNFEPKSSDKTHTCPPCPAPELRRGPSVFLFPPKPKDTLMISRTPEVTCVVVDVSHEDPEVKFNWYVDGVEVHNAKTKPREEQYNSTYRVVSVLTVLHQDWLNGKEYKCKVSNKGLPSSIEKTISKAKGQPREPQVCTLPPSREEMTKNQVSLWCLVKGFYPSDIAVEWESNGQPENNYKTTPPVLDSDGSFFLYSKLTVDKSRWQEGNVFSCSVMHEALHNHYTQKSLSLSP chain 2: EPKSSDKTHTCPPCPAPELRRGPSVFLFPPKPKDTLMISRTPEVTCVVVDVSHEDPEVKFNWYVDGVEVHNAKTKPREEQYNSTYRVVSVLTVLHQDWLNGKEYKCKVSNKGLPSSIEKTISKAKGQPREPQVYTLPPSRCEMTKNQVSLSCAVKGFYPSDIAVEWESNGQPENNYKTTPPVLDSDGSFFLVSKLTVDKSRWQEGNVFSCSVMHEALHNRYTQKSLSLSP | 53 | 92 | 108 | 4.07e+06 | 1.54e+07 | 1.34e+07
